According to PMC6039445 (Nature Communications, 2018):

B1: H3v-47 Fab (Fab, V domains shown)
VH: QVQLVQSGAEVKKPGSSVRVSCKASGDTFSSYSITWVRQAPGHGLQWMGGIFPIFGSTNYAQKFDDRLTITTDDSSRTVYMELTSLRLEDTAVYYCARGASKVEPAAPAYSDAFDMWGQGTLVTVSS
VL: DIVMTQSPGTLSLSPGERATLSCRTSQGVSSSYLAWYQQKPGQAPRLLISGSSSRATGIPDRFSGSGSGRDFTLTISRLEPEDSAVYYCQQYATSPTFGQGTRVEIK
B2: H3v-47 IgG (antibody, V domains shown)
VH: B1 VH
VL: B1 VL
notes: also called mAb H3v-47; source: human hybridoma cell line, serum-free medium, purified (protein G); copies: 2 + 2

Experiments:
[1] = target: HA of the Beijing 1989 strain (A/Beijing/353/1989 H3N2), soluble, biotinylated (Influenza A virus A/Beijing/353/1989 …, UniProt O11283, strain, biotin (site not stated)); assay: BLI; conditions: both partners purified
[2] = target: HA of the Shandong 1993 strain (A/Shandong/9/1993 H3N2), soluble, biotinylated (Influenza A virus A/Shandong/9/1993 …, UniProt H9XM74, strain, biotin (site not stated)); assay: BLI; conditions: both partners purified

Binder | binding result [1] | binding result [2]
B1 | binds | binds
B2 | binds | binds
